The target in one experiment is FGF8b. The experiment can be described thus: SPR. Background: Surface plasmon resonance follows binding to a sensor surface in real time, without labels.
Another experiment concerns the target FGF1 (UniProt P05230). The experiment can be described thus: SPR.

As a reminder, the Kd is the free concentration of one partner at which half of the binding sites on the other are occupied at equilibrium, for simple one-to-one binding. A higher Kd goes with weaker binding.

Chain of FGF1 (P05230 whole entry): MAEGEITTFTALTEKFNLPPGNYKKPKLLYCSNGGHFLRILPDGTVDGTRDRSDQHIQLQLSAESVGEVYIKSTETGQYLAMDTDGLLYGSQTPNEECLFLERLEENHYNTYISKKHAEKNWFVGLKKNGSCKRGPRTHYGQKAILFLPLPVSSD

As to “D1-AB-D2-D3 (FGFR3c), full-length FGFR3c ectodomain (from UniProt P22607 23-375) (domain or fragment)”, in the experiment with FGF8b, the Kd was 888 nM.
As to “D1-D2-D3^ΔAB/linker (FGFR3c), naturally occurring isoform of FGFR3c lacking the AB/linker (domain or fragment)”, the Kd in the experiment with FGF1 is 310 nM; in the experiment with FGF8b it was 367 nM.

These data come from paper PMC3378326.
